US20210388103A1 (Takeda / Millennium, published 2021)

Assays:
[1] = target: T1, cynomolgus CD38 (cynomolgus monkey, UniProt Q5VAN0 1-301); test: binding to monkey lymphocytes; method not described; monkey lymphocytes, not CHO cells
T1 construct: In the assays: on CHO-K1 cells transfected with full-length cynomolgus CD38 cDNA, on monkey blood lymphocytes and tissue sections; also called cyno CD38; monkey CD38

[2] = target: T2, human CD38 (human, UniProt P28907 1-300); test: binding to CHO cells expressing human CD38; CHO cells expressing human CD38
T2 construct: In the assays: on CHO-K1 cells transfected with full-length human CD38 cDNA, on human blood lymphocytes, RBCs, cell lines and tissue sections; also called human CD38 antigen

[3] = target: T1, cynomolgus CD38; test: flow cytometry on CHO cells expressing cynomolgus monkey CD38; CHO cells expressing monkey CD38
[4] = target: T1, cynomolgus CD38; test: cell-based or functional assay

T1 sequence (Q5VAN0 whole entry): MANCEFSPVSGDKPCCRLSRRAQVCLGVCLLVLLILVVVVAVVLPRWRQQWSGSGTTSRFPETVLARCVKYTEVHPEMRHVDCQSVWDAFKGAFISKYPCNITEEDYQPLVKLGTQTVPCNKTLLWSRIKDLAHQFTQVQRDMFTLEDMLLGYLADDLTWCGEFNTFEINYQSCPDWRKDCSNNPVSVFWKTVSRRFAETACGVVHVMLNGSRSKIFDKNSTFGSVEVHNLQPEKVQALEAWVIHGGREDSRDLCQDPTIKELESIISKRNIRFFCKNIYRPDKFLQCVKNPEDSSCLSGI

Kd [1]: 4 nM | Kd [2]: 0.7 nM | EC50 [3]: 4.5 nM | cytolysis of NK cells in monkey whole blood in vitro, mean EC50 [4]: 29.6 nM
B1: AB79 (antibody, human IgG1, lambda, V domains shown)
VH: EVQLLESGGGLVQPGGSLRLSCAASGFTFDDYGMSWVRQAPGKGLEWVSDISWNGGKTHYVDSVKGQFTISRDNSKNTLYLQMNSLRAEDTAVYYCARGSLFHDSSGFYFGHWGQGTLVTVSS
VL: QSVLTQPPSASGTPGQRVTISCSGSSSNIGDNYVSWYQQLPGTAPKLLIYRDSQRPSGVPDRFSGSKSGTSASLAISGLRSEDEADYYCQSYDSSLSGSVFGGGTKLTVLG
notes: Fully human IgG1 monoclonal antibody; Used unlabelled, Alexa Fluor conjugated or biotinylated, depending on the assay; also called TAK 079
